Among the data in patent US20070212363A1 are Neutralizing activity (percentage) and percentage of maximal infection, U87.CD4.CCR5.CXCR4 cells, 100 µg/mL antibody values, retold here.

Test in all cases: cell-based or functional assay
Test [1] concerns the target HIV-1 AD8 envelope glycoprotein (Env) (HIV-1 strain AD8).
Test [2] has as its target HIV-1 IIIB envelope glycoprotein (Env) (HIV-1 strain IIIB).
For test [3], the target named is HIV-1 JR-FL envelope glycoprotein (Env) (HIV-1 strain JR-FL).

In the case of Fab X5, the Neutralizing activity (percentage) at 100 µg/mL is 97% in test [1], 100% in test [2] and 83% in test [3]. Also, the values for the percentage of maximal infection, U87.CD4.CCR5.CXCR4 cells, 100 µg/mL antibody in test [1], in test [2] and in test [3] were 8.7%, 10% and 27%, respectively.
Turning to IgG1 X5 (antibody), the Neutralizing activity (percentage) at 100 µg/mL stood at 51% in test [1], 84% in test [2] and 38% in test [3]. Also, the percentage of maximal infection, U87.CD4.CCR5.CXCR4 cells, 100 µg/mL antibody amounted to 55% in test [1], 28% in test [2] and 72% in test [3].
